Results published in patent US20260042836A1.
Blank lines part the entries; values can stand above or below the binder they belong to.

Assays:
[1] = molecular target: Butyrophilin Subfamily 2 Member A1 (BTN2A1) (human) (UniProt Q7KYR7); assay: cell-based or functional assay
[2] = molecular target: BTN2A1; BTN3A1; BTN3A2/A3 peptide on (human); assay: luciferase killing assay, 20 h; T cells + three luciferase tumour cell lines (10:1) + purified GAB + 30 µM pamidronate; fusion: anti-CD3 scFv (GAB)
[3] = molecular target: BTN2A1; BTN3A1; BTN3A2/A3 peptide on (human); assay: luciferase killing assay, 20 h; T cells + luciferase target cells (5:1) + purified GAB + 30 µM pamidronate; fusion: anti-CD3 scFv (GAB)
BTN3A1/A2/A3 = assay: cell-based or functional assay

UniProt Q7KYR7, sequence (Q7KYR7 29-527): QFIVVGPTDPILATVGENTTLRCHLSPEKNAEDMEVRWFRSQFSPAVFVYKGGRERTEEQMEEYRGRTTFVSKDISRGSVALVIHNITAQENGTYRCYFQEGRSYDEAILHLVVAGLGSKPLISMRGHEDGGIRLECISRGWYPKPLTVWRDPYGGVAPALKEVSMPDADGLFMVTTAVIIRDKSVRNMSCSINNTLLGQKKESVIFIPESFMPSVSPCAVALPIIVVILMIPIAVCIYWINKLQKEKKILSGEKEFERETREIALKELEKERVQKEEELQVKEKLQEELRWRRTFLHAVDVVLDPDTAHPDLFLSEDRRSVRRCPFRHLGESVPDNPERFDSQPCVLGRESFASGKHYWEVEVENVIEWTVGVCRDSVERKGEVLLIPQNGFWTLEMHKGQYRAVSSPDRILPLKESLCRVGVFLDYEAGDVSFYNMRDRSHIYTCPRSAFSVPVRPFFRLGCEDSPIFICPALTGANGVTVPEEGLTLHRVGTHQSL

B1: Vγ9Vδ2TCR MNP2γE22W (TCR, part only; not given: rest of gamma chain, delta chain, part only)
TCR gamma, part: AGHLEQPQISSTKTLSKTARLWCVVSGITISATSVYWYRERPGEVIQFLVSISYDGTVRKESGIPSGKFEVDRIPETSTSTLTIHNVEKQDIATYYCALWE
killing of luciferase transduced RPMI8226 cells by TCR-transduced αβT cells (MNP2 wt killed around 60%) [1]: > 90%

IFNγ release after 20 hours of coculture, potency against GAB-AJ8s [1]: 10 fold | IFNγ release relative to GAB-AJ8s (GAB expression media, T cells with MZ1851RC or SCC9, 30 µM pamidronate) [1]: 5.6 fold
B2: GAB-AJ8sγE22W (TCR, part only; not given: CDR3 delta, constant parts, anti-CD3 scFv, part only)
TCR gamma, part: AGHLEQPQISSTKTLSKTARLWCVVSGITISATSVYWYRERPGEVIQFLVSISYDGTVRKESGIPSGKFEVDYIPETSTSTLTIHNVEKQDIATYYCALWE
TCR delta, part: AIELVPEHQTVPVSIGVPATLRCSMKGEAIGNYYINWYRKTQGNTMTFIYREKDIYGPGFKDNFQGDIDIAKNLAVLKILAPSERDEGSYYCACDT
T cell mediated tumor cell killing (luciferase), activity against GAB-AJ8s [1]: > 10 fold | fold difference in EC50 of tumor cell killing between GAB-AJ8s and GAB-AJ8γE22W [1]: 15.5 fold | mean fold difference in EC50 of GAB against GAB-AJ8s [2]: 15.5 fold

IFNγ production relative to GAB-AJ8s (GAB expression media, MZ1851RC, 30 µM pamidronate) [1]: 2 fold
B3: GAB-AJ8sγT81W (TCR, part only; not given: CDR3 delta, constant parts, anti-CD3 scFv, part only)
TCR gamma, part: AGHLEQPQISSTKTLSKTARLECVVSGITISATSVYWYRERPGEVIQFLVSISYDGTVRKESGIPSGKFEVDYIPETSTSWLTIHNVEKQDIATYYCALWE
TCR delta, part: AIELVPEHQTVPVSIGVPATLRCSMKGEAIGNYYINWYRKTQGNTMTFIYREKDIYGPGFKDNFQGDIDIAKNLAVLKILAPSERDEGSYYCACDT
fold difference in EC50 of tumor cell killing against GAB-AJ8s [1]: 2.8 fold | mean fold difference in EC50 of GAB against GAB-AJ8s [3]: 2.8 fold

IFNγ release after 20 hours of coculture, potency against GAB-AJ8s (BTN3A1/A2/A3): 10 fold
B4: GAB-AJ8sδK53S (TCR, part only; not given: CDR3 delta, constant parts, anti-CD3 scFv, part only)
TCR gamma, part: AGHLEQPQISSTKTLSKTARLECVVSGITISATSVYWYRERPGEVIQFLVSISYDGTVRKESGIPSGKFEVDYIPETSTSTLTIHNVEKQDIATYYCALWE
TCR delta, part: AIELVPEHQTVPVSIGVPATLRCSMKGEAIGNYYINWYRKTQGNTMTFIYRESDIYGPGFKDNFQGDIDIAKNLAVLKILAPSERDEGSYYCACDT

IFNγ production relative to GAB-AJ8s (GAB expression media, MZ1851RC, 30 µM pamidronate) [1]: 4.2 fold
B5: GAB-AJ8sγT81H (TCR, part only; not given: CDR3 delta, constant parts, anti-CD3 scFv, part only)
TCR gamma, part: AGHLEQPQISSTKTLSKTARLWCVVSGITISATSVYWYRERPGEVIQFLVSISYDGTVRKESGIPSGKFEVDYIPETSTSTLTIHNVEKQDIATYYCALWE
TCR delta, part: AIELVPEHQTVPVSIGVPATLRCSMKGEAIGNYYINWYRKTQGNTMTFIYREKDIYGPGFKDNFQGDIDIAKNLAVLKILAPSERDEGSYYCACDT
fold difference in EC50 of tumor cell killing against GAB-AJ8s [1]: 2.4 fold | mean fold difference in EC50 of GAB against GAB-AJ8s [3]: 2.4 fold

IFNγ release after 20 hours of coculture, potency against GAB-AJ8s (BTN3A1/A2/A3): 10 fold
B6: GAB-AJ8sδG31V (TCR, part only; not given: CDR3 delta, constant parts, anti-CD3 scFv, part only)
TCR gamma, part: AGHLEQPQISSTKTLSKTARLECVVSGITISATSVYWYRERPGEVIQFLVSISYDGTVRKESGIPSGKFEVDYIPETSTSTLTIHNVEKQDIATYYCALWE
TCR delta, part: AIELVPEHQTVPVSIGVPATLRCSMKGEAIVNYYINWYRKTQGNTMTFIYREKDIYGPGFKDNFQGDIDIAKNLAVLKILAPSERDEGSYYCACDT

IFNγ production relative to GAB-AJ8s (GAB expression media, MZ1851RC, 30 µM pamidronate) [1]: 2 fold
B7: GAB-AJ8s-Vγ9 mutation T83L (TCR, part only; not given: CDR3 delta, constant parts, anti-CD3 scFv, part only)
TCR gamma, part: AGHLEQPQISSTKTLSKTARLECVVSGITISATSVYWYRERPGEVIQFLVSISYDGTVRKESGIPSGKFEVDYIPETSTSTLLIHNVEKQDIATYYCALWE
TCR delta, part: AIELVPEHQTVPVSIGVPATLRCSMKGEAIGNYYINWYRKTQGNTMTFIYREKDIYGPGFKDNFQGDIDIAKNLAVLKILAPSERDEGSYYCACDT

IFNγ production relative to GAB-AJ8s (GAB expression media, MZ1851RC, 30 µM pamidronate) [1]: 8.8 fold
B8: GAB-AJ8sγT83I (TCR, part only; not given: CDR3 delta, constant parts, anti-CD3 scFv, part only)
TCR gamma, part: AGHLEQPQISSTKTLSKTARLECVVSGITISATSVYWYRERPGEVIQFLVSISYDGTVRKESGIPSGKFEVDYIPETSTSTLIIHNVEKQDIATYYCALWE
TCR delta, part: AIELVPEHQTVPVSIGVPATLRCSMKGEAIGNYYINWYRKTQGNTMTFIYREKDIYGPGFKDNFQGDIDIAKNLAVLKILAPSERDEGSYYCACDT

IFNγ release, potency against the single mutants (combined Vγ9 and Vδ2 mutations; RPMI8226 and SCC9) (BTN3A1/A2/A3): 10 fold | IFNγ release, potency against the single mutants (combined Vγ9 and Vδ2 mutations; RPMI8226 and SCC9) [1]: 10 fold
B9: GAB-AJ8sγE22WδG31V (TCR, part only; not given: CDR3 delta, constant parts, anti-CD3 scFv, part only)
TCR gamma, part: AGHLEQPQISSTKTLSKTARLWCVVSGITISATSVYWYRERPGEVIQFLVSISYDGTVRKESGIPSGKFEVDYIPETSTSTLTIHNVEKQDIATYYCALWE
TCR delta, part: AIELVPEHQTVPVSIGVPATLRCSMKGEAIVNYYINWYRKTQGNTMTFIYREKDIYGPGFKDNFQGDIDIAKNLAVLKILAPSERDEGSYYCACDT
T cell mediated killing of RPMI8226 and SCC9, potency against GAB-AJ8s (BTN3A1/A2/A3): > 100 fold | T cell mediated killing of RPMI8226 and SCC9, potency against the single Vγ9 or Vδ2 mutants (BTN3A1/A2/A3): > 10 fold | T cell mediated killing of RPMI8226 and SCC9, potency against GAB-AJ8s [1]: > 100 fold | T cell mediated killing of RPMI8226 and SCC9, potency against the single Vγ9 or Vδ2 mutants [1]: > 10 fold

IFNγ release, potency against the single mutants (combined Vγ9 and Vδ2 mutations; RPMI8226 and SCC9) (BTN3A1/A2/A3): 10 fold | IFNγ release, potency against the single mutants (combined Vγ9 and Vδ2 mutations; RPMI8226 and SCC9) [1]: 10 fold
B10: GAB-AJ8sγE22WδK53S (TCR, part only; not given: CDR3 delta, constant parts, anti-CD3 scFv, part only)
TCR gamma, part: AGHLEQPQISSTKTLSKTARLWCVVSGITISATSVYWYRERPGEVIQFLVSISYDGTVRKESGIPSGKFEVDYIPETSTSTLTIHNVEKQDIATYYCALWE
TCR delta, part: AIELVPEHQTVPVSIGVPATLRCSMKGEAIGNYYINWYRKTQGNTMTFIYRESDIYGPGFKDNFQGDIDIAKNLAVLKILAPSERDEGSYYCACDT
T cell mediated killing of RPMI8226 and SCC9, potency against GAB-AJ8s (BTN3A1/A2/A3): > 100 fold | T cell mediated killing of RPMI8226 and SCC9, potency against the single Vγ9 or Vδ2 mutants (BTN3A1/A2/A3): > 10 fold | T cell mediated killing of RPMI8226 and SCC9, potency against GAB-AJ8s [1]: > 100 fold | T cell mediated killing of RPMI8226 and SCC9, potency against the single Vγ9 or Vδ2 mutants [1]: > 10 fold

IFNγ production relative to GAB-AJ8s (GAB expression media, MZ1851RC, 30 µM pamidronate) [1]: 2 fold
B11: GAB-AJ8s-Vγ9 mutation T81I (TCR, part only; not given: CDR3 delta, constant parts, anti-CD3 scFv, part only)
TCR gamma, part: AGHLEQPQISSTKTLSKTARLECVVSGITISATSVYWYRERPGEVIQFLVSISYDGTVRKESGIPSGKFEVDYIPETSTSILTIHNVEKQDIATYYCALWE
TCR delta, part: AIELVPEHQTVPVSIGVPATLRCSMKGEAIGNYYINWYRKTQGNTMTFIYREKDIYGPGFKDNFQGDIDIAKNLAVLKILAPSERDEGSYYCACDT
